In patent US20240067728A1:

Assays:
[1] = target: PD-L1 on CHO-PD-L1 cells (Promega PD-1/PD-L1 Blockade Bioassay) (UniProt Q9NZQ7)
[2] = target: PD-L1-His antigen (human) (UniProt Q9NZQ7); experiment: SPR (Biacore T200), PD-L1-His immobilised on chip, antibody as mobile phase, 1:1 Binding fit
Chain of PD-L1-His antigen (human) (Q9NZQ7 other isoform, or with tags, fused parts or gaps limits assumed): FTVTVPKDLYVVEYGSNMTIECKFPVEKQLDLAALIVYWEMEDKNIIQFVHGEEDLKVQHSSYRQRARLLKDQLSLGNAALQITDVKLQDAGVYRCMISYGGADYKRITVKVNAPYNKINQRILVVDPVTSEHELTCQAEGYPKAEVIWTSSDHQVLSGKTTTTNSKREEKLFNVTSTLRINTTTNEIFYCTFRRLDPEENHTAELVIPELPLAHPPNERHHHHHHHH

Chain of PD-L1 on CHO-PD-L1 cells (Promega PD-1/PD-L1 Blockade Bioassay) (Q9NZQ7 19-290 limits assumed): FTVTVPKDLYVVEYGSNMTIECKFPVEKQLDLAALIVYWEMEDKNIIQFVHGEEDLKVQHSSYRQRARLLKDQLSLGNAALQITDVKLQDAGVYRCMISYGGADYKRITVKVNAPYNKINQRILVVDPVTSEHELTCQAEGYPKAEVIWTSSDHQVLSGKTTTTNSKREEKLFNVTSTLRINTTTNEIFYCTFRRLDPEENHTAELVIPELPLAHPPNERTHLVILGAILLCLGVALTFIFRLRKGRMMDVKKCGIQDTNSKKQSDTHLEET

- EC50 (luciferase reporter, PD-1/PD-L1 blockade MOA assay; blocked partner: PD-1 on Jurkat-PD1 cells) [1]: 0.087 µg/mL
- Kd [2]: 1.84 nM
Substance: ATE antibody (amino acid sequence identical to atezolizumab)
